Positions count from the first letter of the chain named. Square brackets hold non-standard residues; d marks the D form. GABA = NCCCC(=O)O
T1: BC2T D2R
T1 construct: positional scanning library member
T1 peptide: Ac-PRRKAAVSHWQQ-NH2

T2: BC2T P1E
T2 construct: positional scanning library member
T2 peptide: Ac-EDRKAAVSHWQQ-NH2

T3: BC2T P1F
T3 construct: positional scanning library member
T3 peptide: Ac-FDRKAAVSHWQQ-NH2

T4: BC2T K4P
T4 construct: positional scanning library member
T4 peptide: Ac-PDRPAAVSHWQQ-NH2

T5: BC2T A5C(Abu) (SMILES …)
T5 construct: positional scanning library member
T5 peptide: Ac-PDRK[GABA]AVSHWQQ-NH2

T6: BC2T V7P
T6 construct: positional scanning library member
T6 peptide: Ac-PDRKAAPSHWQQ-NH2

T7: BC2T P1T
T7 construct: positional scanning library member
T7 peptide: Ac-TDRKAAVSHWQQ-NH2

T8: BC2T K4Q
T8 construct: positional scanning library member
T8 peptide: Ac-PDRQAAVSHWQQ-NH2

T9: BC2T R3K
T9 construct: positional scanning library member
T9 peptide: Ac-PDKKAAVSHWQQ-NH2

T10: BC2T V7R
T10 construct: positional scanning library member
T10 peptide: Ac-PDRKAARSHWQQ-NH2

T11: BC2T peptide PDRKAAVSHWQQ (human)
T11 construct: aa 16-27 of beta-catenin; also called BC2-tag; BC2-peptide
T11 peptide: Ac-PDRKAAVSHWQQ-NH2

B1: BC2-NbR106E (VHH)
VHH: QVQLVESGGGLVQPGGSLTLSCTASGFTLDHYDIGWFRQAPGKEREGVSCINNSDDDTYYADSVKGRFTIFMDNAKDTVYLQMNSLKPEDTAIYYCAEARGCKRGEYEYDFWGQGTQVTVSS
notes: headlock mutant of BC2-Nb; immobilised on beads in this assay
B2: BC2 nanobody (VHH)
VHH: B1 VHH with E106R
notes: immobilised on beads in this assay; also called BC2-Nb; BC2 nanotrap (immobilised)

What was measured:
Test in all cases: positional peptide library pulldown on immobilised Nb, LC-MS of supernatant; signal ratio to control GFP-Nb (1 = not captured, near 0 = captured)
BC2T D2R = target: T1, BC2T D2R
How it was run: (§1)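 Unbound peptide left in supernatant after 1 h pulldown in PBS/0.01% CHAPS measured by reversed-phase LC-MS (8–30% eluent B gradient, 20 min).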

BC2T P1E = target: T2, BC2T P1E
How it was run: as §1

BC2T P1F = target: T3, BC2T P1F
How it was run: as §1

BC2T K4P = target: T4, BC2T K4P
How it was run: as §1

BC2T A5C(Abu) = target: T5, BC2T A5C(Abu)
How it was run: as §1

BC2T V7P = target: T6, BC2T V7P
How it was run: as §1

BC2T P1T = target: T7, BC2T P1T
How it was run: as §1

BC2T K4Q = target: T8, BC2T K4Q
How it was run: as §1

BC2T R3K = target: T9, BC2T R3K
How it was run: as §1

BC2T V7R = target: T10, BC2T V7R
How it was run: as §1

[1] = target: T11, BC2T peptide PDRKAAVSHWQQ
How it was run: as §1

Binder	ratio (BC2T D2R)	ratio (BC2T P1E)	ratio (BC2T P1F)	ratio (BC2T K4P)	ratio (BC2T A5C(Abu))	ratio (BC2T V7P)	ratio (BC2T P1T)	ratio (BC2T K4Q)	ratio (BC2T R3K)	ratio (BC2T V7R)	ratio [1]
B1	0.1	0.8	0.3	1	0.1	0.9	0.6	0.2	0.3	0.1	
B2											0.1
